Measured values as given in patent US20220403048A1, “BINDING MOLECULES TO ARGINASE II [ARG2]” (Cancer Research Technology Limited, priority 2019, published 2022).

Biological target: T1, recombinant human trimeric ARG2 enzyme (Homo sapiens, UniProt P78540, E275H/R327K)
T1 construct: His10 (after a GGG linker) (C); made in house; host or cells: E. coli BL21 (DE3)
T1 sequence (P78540 with tags, fused parts or gaps E275H/R327K): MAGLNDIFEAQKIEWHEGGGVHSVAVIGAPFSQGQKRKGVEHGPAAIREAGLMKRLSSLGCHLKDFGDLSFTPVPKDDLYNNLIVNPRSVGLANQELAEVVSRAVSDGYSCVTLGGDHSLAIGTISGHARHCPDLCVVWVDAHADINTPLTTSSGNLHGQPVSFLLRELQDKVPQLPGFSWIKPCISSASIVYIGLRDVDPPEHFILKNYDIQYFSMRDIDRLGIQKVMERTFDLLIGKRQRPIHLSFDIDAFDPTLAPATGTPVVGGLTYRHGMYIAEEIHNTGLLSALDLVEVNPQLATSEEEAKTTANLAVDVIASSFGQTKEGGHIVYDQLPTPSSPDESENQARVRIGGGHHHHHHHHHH
Experiment: Direct binding HTRF assay, human trimeric ARG2
Details: purified scFv, FIG. 1A
Protocol: Unpurified scFv from periplasmic preparations were screened in a homogeneous time-resolved fluorescence (HTRF™, CisBio Bioassays, France) binding assay using a Pherastar plate reader (BMG Labtech, Germany). In this assay, binding of unpurified scFv to recombinant human trimeric ARG2 enzyme was assessed by measuring the fluorescence resonance energy transfer (FRET) between the c-myc tagged scFv and the biotinylated enzyme using streptavidin cryptate and anti-c-myc-XL665 detection reagents (CisBio International, France; cat: 610SAKLB and 61 MYCXLB respectively). […] Assay plates were incubated overnight at 4° C. prior to reading time resolved fluorescence on a Pherastar plate reader ([…]) using an excitation wavelength of 320 nm and measuring the emission at 620 nm and 665 nm (100 flashes).
Data were analysed by calculating % Delta F values for each sample. % Delta F was determined according to equation 1.
The scFv with unique protein sequences were expressed in E. coli and purified by affinity chromatography (essentially as described (Bannister et al., 2006)). The ARG2 binding profile of each purified scFv was determined by testing a dilution series of the purified scFv in the HTRF™ assay described in section 1.4, substituting the unpurified scFv periplasmic preparation with the purified scFv. […] Data were analysed by calculating the % Delta F values as described in section 1.4. […]

binding to biotinylated recombinant human trimeric ARG2 enzyme: bound
B1: C0020065: anti-ARG2 antibody, alternate lead isolation clone, VH SEQ ID NO: 2, VL SEQ ID NO: 7 (antibody, listed as Homo sapiens, V domains shown)
VH: GVNLRESGGGVVQPGRSLRLSCAASGFTFSSYAMHWVRQAPGKGLEWVAVISYDGSNKYYVDSVKGRFTISRDNSKNTLYLQMNSLRAEDTAVYYCARDSSQLWFDYWGRGTLVTVSS
VL: QSVVTQPPSVSGAPGQRVTISCTGSSSNIGTGYDVHWYQQLPGTAPKLLIYGNSNRPSGVPDRFSGSKSGTSASLAITGLQAEDEADYYCQSYDSSLSGSVVFGGGTQLTVL
modifications: C0020065
